From the supplement of paper PMC9112550, “Optimization of the antimicrobial peptide Bac7 by deep mutational scanning” (BMC Biology, 2022)

System: Escherichia coli TOP10
Assay: shrunken log2 fold change of peptide-encoding DNA abundance (4.5 h post-induction vs induction); higher = less antimicrobial activity (less host growth inhibition)
Details: time post-induction: 4.5 h; library: site-saturation at positions 5, 18, 19, 20
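Note: peptides expressed intracellularly from a pBAD plasmid library in pooled LB shake-flask culture, induced with 0.3% L-arabinose, DNA abundance read by NGS, three biological replicates, DESeq2 with apeglm shrinkage.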

Sequence | shrunken log2 fold change
RRIRARPPRLPRPRPRPVTYPRP | -0.265
RRIRVRPPRLPRPRPRPEWSPRP | 0.267
RRIRSRPPRLPRPRPRPVYLPRP | -0.519
RRIRSRPPRLPRPRPRPRWNPRP | 0.0205
RRIRWRPPRLPRPRPRPAFDPRP | 0.397
RRIRGRPPRLPRPRPRPETMPRP | 1.14
RRIRCRPPRLPRPRPRPVEPPRP | -0.0281
RRIRTRPPRLPRPRPRPANTPRP | -0.181
RRIRCRPPRLPRPRPRPEQEPRP | -0.0332
RRIRFRPPRLPRPRPRPAIHPRP | -0.478
RRIRWRPPRLPRPRPRPWCVPRP | -0.032
RRIRCRPPRLPRPRPRPLLGPRP | 0.201
RRIRNRPPRLPRPRPRPNVFPRP | -0.43
RRIRYRPPRLPRPRPRPEQPPRP | 0.00487
RRIRFRPPRLPRPRPRPIFIPRP | -0.777
RRIRDRPPRLPRPRPRPTDCPRP | 0.00372
RRIRERPPRLPRPRPRPRTNPRP | 0.00565
RRIRRRPPRLPRPRPRPNVFPRP | 0.426
RRIRLRPPRLPRPRPRPSKRPRP | -0.646
RRIRGRPPRLPRPRPRPVAHPRP | 0.548
RRIRMRPPRLPRPRPRPWPLPRP | 0.0935
RRIRQRPPRLPRPRPRPAGTPRP | 0.134
RRIRVRPPRLPRPRPRPSYYPRP | -0.674
RRIRPRPPRLPRPRPRPGRHPRP | -0.166
RRIRNRPPRLPRPRPRPNWKPRP | -0.0062

Sequence | shrunken log2 fold change
RRIRNRPPRLPRPRPRPACPPRP | 0.307
RRIRARPPRLPRPRPRPPRDPRP | 1.04
RRIRDRPPRLPRPRPRPRQNPRP | 0.00972
RRIRTRPPRLPRPRPRPSLYPRP | -0.522
RRIRVRPPRLPRPRPRPPQYPRP | -0.19
RRIRCRPPRLPRPRPRPEELPRP | 0.249
RRIRRRPPRLPRPRPRPMGYPRP | 0.0381
RRIRSRPPRLPRPRPRPSEHPRP | -0.579
RRIRGRPPRLPRPRPRPVKTPRP | 0.0324
RRIRRRPPRLPRPRPRPMEAPRP | 0.0829
RRIRPRPPRLPRPRPRPGYSPRP | -0.0781
RRIRTRPPRLPRPRPRPSGTPRP | -0.0272
RRIRPRPPRLPRPRPRPCYYPRP | -0.436
RRIRIRPPRLPRPRPRPIRDPRP | -0.0759
RRIRGRPPRLPRPRPRPSLWPRP | 0.611
RRIRCRPPRLPRPRPRPHNAPRP | -0.171
RRIRIRPPRLPRPRPRPNLYPRP | -0.565
RRIRTRPPRLPRPRPRPLTKPRP | 0.0652
RRIRCRPPRLPRPRPRPLRPPRP | 0.815
RRIRTRPPRLPRPRPRPSVHPRP | -0.237
RRIRNRPPRLPRPRPRPGAQPRP | 0.0369
RRIRCRPPRLPRPRPRPSVEPRP | 0.00103
RRIRGRPPRLPRPRPRPMKKPRP | 1.17
RRIRHRPPRLPRPRPRPMPAPRP | 0.337
RRIRKRPPRLPRPRPRPDTAPRP | 0.154

Sequence | shrunken log2 fold change
RRIRCRPPRLPRPRPRPIPTPRP | -0.0788
RRIRQRPPRLPRPRPRPHARPRP | -0.00608
RRIRERPPRLPRPRPRPGIRPRP | -0.0819
RRIRFRPPRLPRPRPRPNGKPRP | 0.0809
RRIRIRPPRLPRPRPRPWKKPRP | 0.00748
RRIRVRPPRLPRPRPRPAWLPRP | 0.186
RRIRVRPPRLPRPRPRPLMWPRP | 0.157
RRIRPRPPRLPRPRPRPMTAPRP | 0.162
RRIRNRPPRLPRPRPRPMMSPRP | 0.0191
RRIRPRPPRLPRPRPRPWQPPRP | -0.0506
RRIRGRPPRLPRPRPRPPMSPRP | 0.565
RRIRNRPPRLPRPRPRPYALPRP | -0.399
RRIRTRPPRLPRPRPRPQTMPRP | -0.151
RRIRFRPPRLPRPRPRPDYHPRP | -0.935
RRIRSRPPRLPRPRPRPVQNPRP | 0.0832
RRIRFRPPRLPRPRPRPSGHPRP | -0.212
RRIRPRPPRLPRPRPRPRWLPRP | 0.299
RRIRSRPPRLPRPRPRPNQHPRP | -0.201
RRIRLRPPRLPRPRPRPFWEPRP | 0.117
RRIRQRPPRLPRPRPRPMRGPRP | 0.904
RRIRDRPPRLPRPRPRPRDGPRP | 0.81
RRIRERPPRLPRPRPRPRKKPRP | -0.111
RRIRHRPPRLPRPRPRPAPGPRP | 0.536
RRIRLRPPRLPRPRPRPHRQPRP | 0.115
RRIRRRPPRLPRPRPRPIGSPRP | 0.318

Sequence | shrunken log2 fold change
RRIRVRPPRLPRPRPRPTEHPRP | -0.0827
RRIRGRPPRLPRPRPRPDATPRP | 4.21
RRIRIRPPRLPRPRPRPRTYPRP | -0.726
RRIRVRPPRLPRPRPRPMDFPRP | -0.205
RRIRIRPPRLPRPRPRPTGLPRP | 0.375
RRIRMRPPRLPRPRPRPQASPRP | 0.309
RRIRMRPPRLPRPRPRPGCWPRP | 0.984
RRIRRRPPRLPRPRPRPGDCPRP | 0.336
RRIRNRPPRLPRPRPRPWEFPRP | -0.00197
RRIRGRPPRLPRPRPRPCIVPRP | 0.201
RRIRKRPPRLPRPRPRPERKPRP | 0.582
RRIRHRPPRLPRPRPRPSMYPRP | -0.0507
RRIRYRPPRLPRPRPRPEPSPRP | -0.0733
RRIRWRPPRLPRPRPRPIFTPRP | -0.173
RRIRSRPPRLPRPRPRPNGRPRP | -0.0415
RRIRFRPPRLPRPRPRPWRHPRP | 0.0222
RRIRNRPPRLPRPRPRPNFAPRP | 0.0544
RRIRRRPPRLPRPRPRPFTFPRP | -0.247
RRIRIRPPRLPRPRPRPGSQPRP | -0.0143
RRIRGRPPRLPRPRPRPYLSPRP | -0.0512
RRIRLRPPRLPRPRPRPAQQPRP | 0.0982
RRIRFRPPRLPRPRPRPPAYPRP | 0.127
RRIRWRPPRLPRPRPRPTLVPRP | -0.212
RRIRWRPPRLPRPRPRPSKCPRP | -0.00209
RRIRWRPPRLPRPRPRPQPVPRP | 0.135

Sequence | shrunken log2 fold change
RRIRCRPPRLPRPRPRPNMSPRP | -0.204
RRIRQRPPRLPRPRPRPAKLPRP | 0.0771
RRIRVRPPRLPRPRPRPKMTPRP | -0.0628
RRIRARPPRLPRPRPRPPEAPRP | 0.699
RRIRMRPPRLPRPRPRPYFLPRP | -0.542
RRIRDRPPRLPRPRPRPTIWPRP | -0.0201
RRIRGRPPRLPRPRPRPPQWPRP | 0.801
RRIRQRPPRLPRPRPRPCEMPRP | -0.00121
RRIRKRPPRLPRPRPRPGHLPRP | 0.0738
RRIRHRPPRLPRPRPRPYNCPRP | -0.00726
RRIRYRPPRLPRPRPRPLVCPRP | -0.325
RRIRDRPPRLPRPRPRPYPLPRP | 0.215
RRIRIRPPRLPRPRPRPHICPRP | -0.0273
RRIRWRPPRLPRPRPRPHVKPRP | -0.439
RRIRWRPPRLPRPRPRPPPLPRP | 1.32
RRIRHRPPRLPRPRPRPHERPRP | -0.00134
RRIRQRPPRLPRPRPRPVTLPRP | -0.153
RRIRNRPPRLPRPRPRPENCPRP | 0.0518
RRIRHRPPRLPRPRPRPRMYPRP | -0.194
RRIRYRPPRLPRPRPRPGQFPRP | -0.0455
RRIRPRPPRLPRPRPRPPWLPRP | 0.57
RRIRIRPPRLPRPRPRPQHKPRP | -0.621
RRIRPRPPRLPRPRPRPEPLPRP | 0.0833
RRIRKRPPRLPRPRPRPQVMPRP | -0.162
RRIRTRPPRLPRPRPRPLEQPRP | -0.102
